Experimental data: PMC8537947, “Improved Radiolytic Stability of a ^68Ga-labelled Collagelin Analogue for the Imaging of Fibrosis” (Pharmaceuticals, 2021)
Bridge positions count the residues as written; N and C are the ends. Square brackets hold non-standard residues; d marks the D form. Peptide text beside a SMILES is read from it. * marks the point of attachment. NOTA = O=C(O)CN1CCN(CC(=O)O)CCN(CC(=O)*)CC1; Nle = CCCC[C@H](N)C(=O)O; AEEA = NCCOCCOCC(=O)O

Experiment: in vivo
Parameters: species or system Sprague-Dawley rats
Conditions: Sprague-Dawley, rat, iv, total radioactivity
Protocol: Sixteen male (n = 10; 363.3 ± 19.6 g) and female (n = 6; 199.2 ± 5.5 g) Sprague–Dawley rats were used for ex vivo organ distribution of the [^68Ga]Ga-NO2A-[Nle13]-Col for the subsequent extrapolation and calculation of human dosimetry. The male and female animals were administered into the tail vein with, respectively, 2.3 ± 0.8 MBq and 1.4 ± 0.5 MBq, sacrificed at 5, 10, 30, 40, 60, and 120 min post administration, and the organs were harvested, weighted, and measured for their radioactivity content. Samples from the blood, heart, lung, liver, spleen, adrenal glands, kidneys, intestines with or without contents, muscle, testis, bone, brain, pancreas, urine bladder, and bone marrow were collected. To monitor radioactivity elimination and recovery, the radioactivity of the remaining carcass was also measured. The radioactivity measurements were corrected for decay and converted into standardized uptake values (SUVs, Table S2) according to Equation (2), wherein the radioactivity is expressed in MBq and the weight in grams:(2) SUV=Radioactivityorgan∗weightrat/Radioactivityinjected∗weightorgan

[1] = female, 1.4 MBq, SUV bladder (UB)
[2] = female, 1.4 MBq, SUV blood (BL)
[3] = female, 1.4 MBq, SUV brain (BR)
[4] = female, 1.4 MBq, SUV heart (HE)
[5] = female, 1.4 MBq, SUV liver (LI)
[6] = female, 1.4 MBq, SUV lungs (LU)
[7] = female, 1.4 MBq, SUV muscle (MU)
[8] = female, 1.4 MBq, SUV red bone marrow (BM)
[9] = female, 1.4 MBq, SUV spleen (SP)
[10] = female, SUV large intestine without content (INL-)
[11] = female, SUV small intestine with its content (INS+)

CCCC[C@@H]1NC(=O)[C@H](C(C)C)NC(=O)[C@H](CCCNC(=N)N)NC(=O)CNC(=O)[C@@H]2CCCN2C(=O)[C@@H](NC(=O)COCCOCCNC(=O)CN2CCN(CC(=O)O)CCN(CC(=O)O)CC2)CSSC[C@@H](C(=O)O)NC(=O)[C@@H]2CCCN2C(=O)CNC(=O)[C@H](CCC(=O)O)NC(=O)[C@H](CC(=O)O)NC(=O)[C@H](CC(=O)O)NC(=O)CNC(=O)[C@H](CC(C)C)NC(=O)[C@H](Cc2c[nH]cn2)NC(=O)[C@H](CC(C)C)NC(=O)CNC(=O)[C@H](Cc2c[nH]cn2)NC1=O [[^68Ga]Ga-NO2A-[Nle^13]-Col, [^68Ga]Ga-NOTA-PEG2-c[CPGRVNleHGLHLGDDEGPC], metal not drawn] ({NOTA-AEEA}-CPGRV[Nle]HGLHLGDDEGPC-OH; disulfide 1-18) showed an SUV at 2 h (SUV of adrenal glands, bone marrow and urinary bladder) of less than 0.25 SUV, an SUV at 1 h (SUV of all vital organs) of less than 0.2 SUV and an SUV at 2 h (SUV of the remainder of the organs) of less than 0.1 SUV. For the same molecule, the SUV at 2 h (both sexes, SUV of most of the organs) was less than 0.25 SUV, the SUV at 5 min [1] was 4.88 SUV and the SUV at 10 min [1] was 6.96 SUV. For the same molecule, the SUV at 0.5 h [1] was 5.83 SUV, the SUV at 40 min [1] was 0.843 SUV and the SUV at 1 h [1] was 1.08 SUV. For the same molecule, the SUV at 2 h [1] was 0.321 SUV, the SUV at 10 min [2] was 1.42 SUV and the SUV at 0.5 h [2] was 0.497 SUV. The SUV at 40 min [2] was 0.432 SUV, the SUV at 1 h [2] was 0.217 SUV and the SUV at 2 h [2] was 0.0412 SUV. The SUV at 5 min (female, 1.4 MBq, SUV bone (BO)) was 0.391 SUV, the SUV at 10 min (female, 1.4 MBq, SUV bone (BO)) was 0.403 SUV and the SUV at 0.5 h (female, 1.4 MBq, SUV bone (BO)) was 0.179 SUV. It also gave an SUV at 40 min (female, 1.4 MBq, SUV bone (BO)) of 0.106 SUV, an SUV at 1 h (female, 1.4 MBq, SUV bone (BO)) of 0.064 SUV and an SUV at 2 h (female, 1.4 MBq, SUV bone (BO)) of 0.031 SUV. The SUV at 5 min [3] was 0.073 SUV, the SUV at 10 min [3] was 0.0964 SUV and the SUV at 0.5 h [3] was 0.0189 SUV. For the same molecule, the SUV at 40 min [3] was 0.0174 SUV, the SUV at 1 h [3] was 0.0149 SUV and the SUV at 2 h [3] was 0.0062 SUV. The SUV at 5 min [4] was 0.741 SUV, the SUV at 10 min [4] was 0.68 SUV and the SUV at 0.5 h [4] was 0.207 SUV. The SUV at 40 min [4] was 0.18 SUV, the SUV at 1 h [4] was 0.104 SUV and the SUV at 2 h [4] was 0.026 SUV. It also gave an SUV at 5 min [5] of 0.438 SUV, an SUV at 10 min [5] of 0.452 SUV and an SUV at 0.5 h [5] of 0.171 SUV. The SUV at 40 min [5] was 0.147 SUV, the SUV at 1 h [5] was 0.114 SUV and the SUV at 2 h [5] was 0.0889 SUV. For the same molecule, the SUV at 5 min [6] was 1.12 SUV, the SUV at 10 min [6] was 0.986 SUV and the SUV at 0.5 h [6] was 0.385 SUV. It also gave an SUV at 40 min [6] of 0.427 SUV, an SUV at 1 h [6] of 0.276 SUV and an SUV at 2 h [6] of 0.0631 SUV. The SUV at 5 min [7] was 0.514 SUV, the SUV at 10 min [7] was 0.295 SUV and the SUV at 0.5 h [7] was 0.214 SUV. The SUV at 40 min [7] was 0.0802 SUV, the SUV at 1 h [7] was 0.0488 SUV and the SUV at 2 h [7] was 0.0213 SUV. For the same molecule, the SUV at 2 h (female, 1.4 MBq, SUV ovarian (OV)) was 0.124 SUV, the SUV at 5 min [8] was 0.484 SUV and the SUV at 10 min [8] was 0.443 SUV. It also gave an SUV at 0.5 h [8] of 0.162 SUV, an SUV at 40 min [8] of 0.769 SUV and an SUV at 1 h [8] of 0.113 SUV. It also gave an SUV at 2 h [8] of 0.343 SUV, an SUV at 5 min [9] of 0.423 SUV and an SUV at 10 min [9] of 0.354 SUV. The SUV at 0.5 h [9] was 0.174 SUV, the SUV at 40 min [9] was 0.135 SUV and the SUV at 1 h [9] was 0.0938 SUV. The SUV at 5 min (female, SUV adrenals (AD)) was 0.724 SUV, the SUV at 10 min (female, SUV adrenals (AD)) was 1.29 SUV and the SUV at 0.5 h (female, SUV adrenals (AD)) was 0.0127 SUV. It also gave an SUV at 40 min (female, SUV adrenals (AD)) of 0.25 SUV, an SUV at 1 h (female, SUV adrenals (AD)) of 0.198 SUV and an SUV at 2 h (female, SUV adrenals (AD)) of 0.128 SUV. For the same molecule, the SUV at 5 min (female, SUV blood (BL)) was 2.06 SUV, the SUV at 5 min (female, SUV kidneys (KI)) was 12.1 SUV and the SUV at 10 min (female, SUV kidneys (KI)) was 11.3 SUV. The SUV at 0.5 h (female, SUV kidneys (KI)) was 6.32 SUV, the SUV at 40 min (female, SUV kidneys (KI)) was 12.9 SUV and the SUV at 1 h (female, SUV kidneys (KI)) was 12.8 SUV. For the same molecule, the SUV at 2 h (female, SUV kidneys (KI)) was 9.08 SUV, the SUV at 5 min [10] was 0.569 SUV and the SUV at 10 min [10] was 0.91 SUV. For the same molecule, the SUV at 0.5 h [10] was 0.193 SUV, the SUV at 40 min [10] was 0.211 SUV and the SUV at 1 h [10] was 0.103 SUV. The SUV at 2 h [10] was 0.046 SUV, the SUV at 5 min (female, SUV ovarian (OV)) was 0.927 SUV and the SUV at 10 min (female, SUV ovarian (OV)) was 1.87 SUV. The SUV at 0.5 h (female, SUV ovarian (OV)) was 0.341 SUV, the SUV at 40 min (female, SUV ovarian (OV)) was 0.335 SUV and the SUV at 1 h (female, SUV ovarian (OV)) was 0.159 SUV. The SUV at 5 min (female, SUV pancreas (PA)) was 0.439 SUV, the SUV at 10 min (female, SUV pancreas (PA)) was 0.361 SUV and the SUV at 0.5 h (female, SUV pancreas (PA)) was 0.164 SUV. For the same molecule, the SUV at 40 min (female, SUV pancreas (PA)) was 0.0609 SUV, the SUV at 1 h (female, SUV pancreas (PA)) was 0.0659 SUV and the SUV at 2 h (female, SUV pancreas (PA)) was 0.029 SUV. For the same molecule, the SUV at 5 min [11] was 0.436 SUV, the SUV at 10 min [11] was 0.558 SUV and the SUV at 0.5 h [11] was 0.277 SUV. The SUV at 40 min [11] was 0.165 SUV, the SUV at 1 h [11] was 0.129 SUV and the SUV at 2 h [11] was 0.0343 SUV.
